In patent US20090253622A1, “USE OF TLR3 AGONISTS FOR THE TREATMENT OF NEURODEGENERATIVE DISORDERS” (Nederlandse Organisatie voor toegepast - …, priority 2006, published 2009):

Tested on: human astrocytes
Test: cDNA bank screening: COS-7 transfectant supernatants on human astrocytes, CXCL8 release
Assay type: cell-based
Conditions: COS-7 supernatant, 48 h
Method: Cos-7 cells (25,000 cells per well in 96-well plates) were transfected for 5 h with 768 pools of cDNA derived from human brain tumours (5 pooled tumours including meningioma, oligodendroglioma, astrocytoma grades II and IV, and medulloblastoma; NCI CGAP Brn35; Invitrogen) using lipofectamine, after which cells were thoroughly washed. Transfection with green-fluorescent protein-encoding cDNA was used as an internal control for transfection efficiencies. After continued culture of the transfected cells for 48 h, 75 μL of each culture supernatant was harvested and added to cultured human astrocytes seeded at 1,000 cells per well in 75 μL. After 48 h of culture, supernatants were harvested and evaluated for CXCL8 release using ELISA. […]
A cDNA bank derived from 5 pooled tumours including meningioma, oligodendroglioma, astrocytoma grades II and IV and medulloblastoma was used as a source of sequences potentially encoding an endogenous protein agonist for TLR3. The cDNAs were cloned into plasmid vectors promoting expression and secretion of the cDNA-encoded product by mammalian cells, and these plasmids were transfected into COS-7 cells and evaluated in a two-step approach. […] To monitor such an astrocyte response in this first stage, secretion of CXCL8 was evaluated since this is a sensitive marker for TLR3 activation in these and other cells (cf. FIGS. 9 and 10). […]

B1: clone F5: cDNA clone product with amino acid sequence identical to residues 44-149 of human stathmin (protein)
chain: DFSLEEIQKKLEAAEERRKSHEAEVLKQLAEKREHEKEVLQKAIEENNNFSKMAEEKITHKMEANKENREAQMAAKLERLREKDKHIEEVRKNKESKDPADETEAD
- CXCL8 secretion in astrocytes triggered by cDNA-encoded product: marked CXCL8 secretion
